T1: monkey C5-mmh (monkey, UniProt P01031 19-1676 (human entry), limits assumed)
T1 construct: recombinant, with C-terminal myc-myc-hexahistidine tag
T1 chain: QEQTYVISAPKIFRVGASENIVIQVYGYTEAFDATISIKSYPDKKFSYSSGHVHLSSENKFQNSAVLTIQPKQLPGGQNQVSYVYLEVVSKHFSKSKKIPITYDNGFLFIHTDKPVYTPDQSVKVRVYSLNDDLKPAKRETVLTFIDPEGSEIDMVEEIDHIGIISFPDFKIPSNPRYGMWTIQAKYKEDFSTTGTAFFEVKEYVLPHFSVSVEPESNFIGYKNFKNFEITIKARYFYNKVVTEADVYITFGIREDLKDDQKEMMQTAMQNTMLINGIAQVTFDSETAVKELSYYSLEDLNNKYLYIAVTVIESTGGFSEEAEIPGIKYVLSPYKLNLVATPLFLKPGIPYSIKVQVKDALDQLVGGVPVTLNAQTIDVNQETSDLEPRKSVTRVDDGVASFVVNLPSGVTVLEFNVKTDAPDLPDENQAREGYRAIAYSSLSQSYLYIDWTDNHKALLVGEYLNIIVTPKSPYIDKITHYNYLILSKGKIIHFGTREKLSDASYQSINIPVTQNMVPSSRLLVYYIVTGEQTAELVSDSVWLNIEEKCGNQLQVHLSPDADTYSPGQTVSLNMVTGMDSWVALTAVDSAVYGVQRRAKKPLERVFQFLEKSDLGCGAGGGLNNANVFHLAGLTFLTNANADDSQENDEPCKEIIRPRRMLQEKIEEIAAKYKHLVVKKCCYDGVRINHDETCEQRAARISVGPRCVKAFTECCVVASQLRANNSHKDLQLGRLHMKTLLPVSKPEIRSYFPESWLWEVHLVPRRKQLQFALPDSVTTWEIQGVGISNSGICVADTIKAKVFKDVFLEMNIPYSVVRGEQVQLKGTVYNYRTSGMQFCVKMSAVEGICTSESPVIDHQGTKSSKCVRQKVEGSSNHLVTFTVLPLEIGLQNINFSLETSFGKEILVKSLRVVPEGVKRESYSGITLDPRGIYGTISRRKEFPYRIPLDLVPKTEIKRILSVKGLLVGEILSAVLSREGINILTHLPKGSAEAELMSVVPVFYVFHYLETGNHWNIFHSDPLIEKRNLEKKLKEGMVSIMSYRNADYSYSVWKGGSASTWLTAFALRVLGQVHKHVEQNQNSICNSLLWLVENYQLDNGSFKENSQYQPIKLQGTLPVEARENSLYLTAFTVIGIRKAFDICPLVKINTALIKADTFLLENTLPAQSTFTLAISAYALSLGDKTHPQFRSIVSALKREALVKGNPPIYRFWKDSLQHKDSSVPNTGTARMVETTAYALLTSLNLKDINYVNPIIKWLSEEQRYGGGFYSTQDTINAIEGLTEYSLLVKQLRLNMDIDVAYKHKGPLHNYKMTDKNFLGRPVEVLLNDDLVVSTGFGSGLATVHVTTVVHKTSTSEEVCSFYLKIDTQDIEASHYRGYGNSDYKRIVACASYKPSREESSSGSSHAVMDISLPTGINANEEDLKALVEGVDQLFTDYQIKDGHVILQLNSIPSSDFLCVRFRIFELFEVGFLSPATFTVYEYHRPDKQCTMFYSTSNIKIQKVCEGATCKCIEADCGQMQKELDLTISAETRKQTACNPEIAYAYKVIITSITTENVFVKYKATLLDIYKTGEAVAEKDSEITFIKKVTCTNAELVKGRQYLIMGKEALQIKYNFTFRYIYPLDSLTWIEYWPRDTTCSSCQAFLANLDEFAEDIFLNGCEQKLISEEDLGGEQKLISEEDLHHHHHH

B1: H4H12170P (antibody, human IgG4, V domains shown)
VH: QVQLVESGGGVVQPGRSLRLSCAASGFTFSGYGMHWVRQAPGKGLEWVALIWLDGSNDYYADSVKGRFTISRDNSKNTLYLQMNRLRAEDTAVYYCARDGPVAAIPDYWGQGTLVTVSS
VL: DIQMTQSPSTLSASVGDRVTITCRASQSISRWLAWYQLKPGKAPKLLIYKASSLESGVPSRFSGSGSGTDFTLTISSLQPDDFATYYCQQYNTYSYTFGQGTKLEIK
notes: H4H: human IgG4 Fc with S108P hinge mutation
B2: H4H12175P (antibody, human IgG4, V domains shown)
VH: EVQLVESGGGVVQPGGSLRLSCAASGFTFNDYAMHWVRQAPGKGLEWVSLISGDGGNTYYADSVKGRLTISRDNSKNSLYLQMNSLRTEDTALYYCAKDKGWNFGYFDLWGRGTLVTVSS
VL: DIQMTQSPSSLSTSVGDRVTITCRASQNIDTYLNWYQQKPGKAPKLLIYDASSLQSGVPSRFSGSGSGTDFTLTITSLQPEDFATYYCQQNDNILHPLTFGGGTKVEIK
notes: as for B1
B3: H4H12177P2 (antibody, human IgG4, V domains shown)
VH: EVQLVESGGGVVQRGESLRLSCSASDFIFKDYAMYWVRQIPGKGLEWISLISGDGDTTWYGDSVKGRFTISRDNNENSLFLQMNDLRTEDTAMYYCARDMGWNFFQLQYWGQGTLVTVSS
VL: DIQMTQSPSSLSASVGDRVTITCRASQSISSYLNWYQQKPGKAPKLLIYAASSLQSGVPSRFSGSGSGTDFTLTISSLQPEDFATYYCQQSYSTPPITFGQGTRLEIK
notes: as for B1

Experiments:
human C5 [1] = molecular target: T2, human C5 (human, UniProt P01031 19-1676); assay: SPR (Biacore), mAb captured, dissociation of human C5 at pH7.4 vs pH6.0, 37°C
T2 construct: native C5 purified from plasma (EMD) in the Biacore and Octet assays, C5 of normal human serum in the CDC and hemolysis assays; two chains (alpha and beta); also called hC5; complement factor 5
In short: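 Anti-C5 mAbs (human IgG4 Fc) captured on an amine-coupled mouse anti-human Fc surface; recombinant C5 dissociation followed by Biacore T200 in PBS-T (0.01M phosphate, 0.15M NaCl, 0.05% Tween-20) at pH7.4 or pH6.0. Dissociative half-life (t½) calculated from kd.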

monkey C5-mmh [2] = molecular target: T1, monkey C5-mmh; assay: SPR (Biacore), mAb captured, dissociation of monkey C5 at pH7.4 vs pH6.0, 25°C
monkey C5-mmh [3] = molecular target: T1, monkey C5-mmh; assay: SPR (Biacore), mAb captured, dissociation of monkey C5 at pH7.4 vs pH6.0, 37°C
human C5 R885C-mmh = human C5 R885C-mmh (human, UniProt P01031 19-1676); assay: cell-based or functional assay
human C5 [4] = molecular target: T2, human C5; assay: cell-based or functional assay
African green monkey C5 [5] = molecular target: T3, African green monkey C5 (African green monkey); assay: cell-based or functional assay
human C5 R885H-mmh = human C5 R885H-mmh (human, UniProt P01031 19-1676); assay: cell-based or functional assay
Cynomolgus monkey C5 = Cynomolgus monkey C5 (cynomolgus monkey, UniProt A0A2K5U1T1 19-1676); assay: cell-based or functional assay
African green monkey C5 [6] = molecular target: T3, African green monkey C5; assay: cell-based or functional assay; remark: listed apart in the source
human C5 [7] = molecular target: T2, human C5; assay: cell-based or functional assay; remark: listed apart in the source

Binder	t½ Ratio pH7.4/pH6.0 (human C5 [1])	t½ Ratio pH7.4/pH6.0 (monkey C5-mmh [2])	t½ Ratio pH7.4/pH6.0 (monkey C5-mmh [3])	IC50, inhibition of CDC of Daudi cells, C5 depleted human serum and 6.6 nM C5 Variant R885C (human C5 R885C-mmh)	IC50, inhibition of CDC of Daudi cells, 1.66% human serum (human C5 [4])	IC50, inhibition of CDC of Daudi cells, 1.66% African Green monkey serum (African green monkey C5 [5])	IC50, inhibition of CDC of Daudi cells, C5 depleted human serum and 6.6 nM C5 Variant R885H (human C5 R885H-mmh)	Cyno AP % Max Inhibition, hemolysis assay, 5% serum (Cynomolgus monkey C5)	Cyno CP % Max Inhibition, hemolysis assay, 5% serum (Cynomolgus monkey C5)	Cyno Serum AP IC50, hemolysis assay, 5% serum (Cynomolgus monkey C5)	Cyno Serum CP IC50, hemolysis assay, 5% serum (Cynomolgus monkey C5)	AGM AP % Max Inhibition, hemolysis assay, 5% serum (African green monkey C5 [6])	AGM CP % Max Inhibition, hemolysis assay, 5% serum (African green monkey C5 [6])	AGM Serum AP IC50, hemolysis assay, 5% serum (African green monkey C5 [6])	AGM Serum CP IC50, hemolysis assay, 5% serum (African green monkey C5 [6])	Human AP % Max Inhibition, hemolysis assay, NHS (human C5 [7])	Human AP IC50, hemolysis assay, NHS (human C5 [7])	Human CP % Max Inhibition, hemolysis assay, NHS (human C5 [7])	Human CP IC50, hemolysis assay, NHS (human C5 [7])
B1	≤ 0.2	≤ 1.7	4.7	0.43 nM	2 nM	3.7 nM	0.48 nM	99.2%	99%	7 nM	8.2 nM	90.9%	94.9%	26.9 nM	25.4 nM	81.1%	18 nM	98.2%	2.39 nM
B2	0.9	3.6	0.4	> 20 nM	2.2 nM	5.2 nM	4.2 nM	98.1%	96.7%	8.05 nM	10.9 nM	17.4%	84.5%	98.5 nM	118 nM	80.2%	20 nM	98%	2.36 nM
B3	1.3	3.7	1.5	1.6 nM	2.2 nM	6.1 nM	2.4 nM	98.1%	94.9%	8.8 nM	17.1 nM	8.8%	80.6%	101 nM	180 nM	71%	17 nM	97.5%	2.34 nM

From patent US20170355757A1 (Regeneron, published 2017)
